# Test: yeast display, Sf9 membrane polyspecificity reagent, FACS + sequencing; frameworks hold sequencing errors
# Procedure, shortened: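 Synthetic nanobody libraries on Saccharomyces cerevisiae BJ5465 were galactose-induced for 36–48 hours, stained 1 hour at 4 °C with 10% biotinylated, detergent-solubilized Sf9 membrane reagent and enriched on streptavidin microbeads. FACS then separated cells into low and high (top ~1%) gates by anti-HA (expression) and streptavidin (reagent binding) fluorescence. Genes were colony-PCR amplified, MiSeq 2 × 250 sequenced and CDR-length filtered. A clone's polyreactivity label is that of its gate of origin.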
row,Sequence,polyreactivity (PSR sort gate)
1,QVQLVESGGGLVQAGGSLRLSCAASGFTFYGYAMGWYRPAPGKERELVAAISWSGGSTFYADSVKGRFTISRDNAKNTVYLQMNSQKAEDTAVDYCNAKVYPWGYYTSWRTVSPYDYWGQGTQVSVSS,high polyreactivity
2,QVQLVESGGGLVQAGGSLRLSCAASGFTFYGYAMGWYRQAPGKERELVAAISSSGGRTYYADSVKGRFTISRDNEKNTVYLQMNSLKPEDTAVYYCAAEYRSYRDGYWGLGTQVTVSS,high polyreactivity
3,QVQLVESGGGLVQAGGSLRLSCAASGFTFYGYGMGWYRQAPGKERELVAVITSGGSTKYADSVKGRFTISRDNAKNTVDLQMNSLKPEDTAVYYCNVVGGRYLYSAYDYWGQGTQVTVSS,low polyreactivity
4,QVQLVESGGGLVQAGGSLRLSCAASGFTFYGYTMGWYRQAPGKERELVAAISRSGGRTYYADSVKGRFTISRDNAKNTVYLQMNSLKPEDTAVYYCAGDSRTNGYDYWGQGTQVTVSS,high polyreactivity
5,QVQLVESGGGLVQAGGSLRLSCAASGFTFYGYVMGWYRQAPGKERELVASIRSRGSRTSYADSVKGRFTISRDNAKNTVYLQMNSLKPEDTAVYYCAASRGRLPYSSTSNGDYDYWGQGTQVTVSS,high polyreactivity
6,QVQLVESGGGLVQAGGSLRLSCAASGFTFYHYAMGWYRQAPGKERELVAAISRSAGSTYYADSVKGRFTISRDNAKNTVYLQMNSLKPEDTAVYYCAKVLRAKNSFDYWGQGTHVTVSS,high polyreactivity
7,QVQLVESGGGLVQAGGSLRLSCAASGFTFYIYAMGWYRQAPGKERELVAAITTTTGSTYYADSVKGRFTISRDNAKNTVYLQMNSLKPEDTAVYYCAAEGHYYYFGYYYWGQGTQVTVSS,low polyreactivity
8,QVQLVESGGGLVQAGGSLRLSCAASGFTFYKNAMGWYRQAPGKERELVATISSGGSTYYADSVKGRFTISRYNAKNTVYLQLNSLKPEDTAVYYCAARVHHGYYSISYYYWGQGTQVTVSS,high polyreactivity
9,QVQLVESGGGLVQAGGSLRLSCAASGFTFYLNAMGWYRQAPGKERELVAAISYSDGSTYYADSVKGRFTISRDNAKNTVYFQMNSLKPEDSAVYYCDADTTDPGGAFQLKDYWGQGTQVTVSS,high polyreactivity
10,QVQLVESGGGLVQAGGSLRLSCAASGFTFYLYAMGWYRQAPGKERELVAAISSGSTTYYADSVKGRFTISRDNAKNTVYLQMNSLKPEDTAVYYCNAYYVNYVSNYEYWGQGTQVTVSS,high polyreactivity
11,QVQLVESGGGLVQAGGSLRLSCAASGFTFYLYTMGWYRQAPGKERELVATITSDGGTNYADSVKGRFTISRDNAKNTVYLQMNSLKPEDTAVYYCNAASRRGSRKQAKYDYWGQGTQVTVSS,low polyreactivity
12,QVQLVESGGGLVQAGGSLRLSCAASGFTFYNVMGWYRQAPGKERELVATISTSVDSTYYADSVKGRFTISRDNAKNTVYLQMNSLKPEDTAVYYCNADISSNYYDYFGYDYWGQGTQVTVSS,low polyreactivity
13,QVQLVESGGGLVQAGGSLRLSCAASGFTFYNYAMGWYRPAPGKERELVAAITKSGSRTYYADSVKGRFTISRDNAKNTVYLQMNSLKPEDTAVYYCARDYTVRGYDYWGQGTQVTVSS,high polyreactivity
14,QVQLVESGGGLVQAGGSLRLSCAASGFTFYNYAMGWYRQAPGKERELVAAISTSGGSTYYADSVKGRFTISRDNAKNTVYLQMNSLKPEDTAVYYCAAQATAYSYAYYYWGQGTQVTVSS,low polyreactivity
15,QVQLVESGGGLVQAGGSLRLSCAASGFTFYPYAMGCYRQAPGKERELVDAISNGASTHYADSVKGRFTISRDNAKNTVYLQMNSLKPEDTAVYYCNAYTRYPFYFVTSKYDYWGQGTQVTVSS,low polyreactivity
16,QVQLVESGGGLVQAGGSLRLSCAASGFTFYPYAMGWYRQAPGKESEFVAAITWRGASTYYADSVKGRFTISRDNAKNTVYLQMNSLKPEDTAVYYCNARWRVPRYRYDYWGQGTQVTVSS,high polyreactivity
17,QVQLVESGGGLVQAGGSLRLSCAASGFTFYQNAMGWYRQAPGKEREFVAAISRRGGSTYYADSVKGRFTISRDNAKNTVYLQMNSLKPEDTAVYYCAADYKRKSDGDYWGQGTQVTVSS,high polyreactivity
18,QVQLVESGGGLVQAGGSLRLSCAASGFTFYRNAMGWSRQAPGKERELVAAISRGGRTYYADSVKGRFTISRDNAKNTVYLQMNSLKPEDTAVYYCAVGYSGYGSSMDYWGQGTQVTVSS,high polyreactivity
19,QVQLVESGGGLVQAGGSLRLSCAASGFTFYRNAMGWYRQAPGKERELVAAISGSGGRTYADSVKGRFTISRDIAKNTVYLQMNSLKPEDTAVYYCAASGYSSYRRYSTSNGYWGQGTQVTVSS,high polyreactivity
20,QVQLVESGGGLVQAGGSLRLSCAASGFTFYRNAMGWYRQAPGKERELVAAISWSGDSTYYADSVKGRFTISRDNAKNTVYLQMNSLKPEDTAVYYCDKERYFYYPWVTTYTSNYWGQGTQVTVSS,low polyreactivity
21,QVQLVESGGGLVQAGGSLRLSCAASGFTFYRNAMGWYRQAPGKERELVAAITWSGTSTYYADSVKGRFTISRDNAKNTVYLQMNSLKPEDTAVYYCNTVGYRGRSNSRFYYWGQGTQVTVSS,high polyreactivity
22,QVQLVESGGGLVQAGGSLRLSCAASGFTFYRNAMGWYRQAPGKERELVAGISKRGGSTYYADSVKGRFTISRDNAKNTVYLQMNSLKPEDTAVYYCARGGYPGSAEYDYWGQGTQVTVSS,high polyreactivity

row,Sequence,polyreactivity (PSR sort gate)
1,QVQLVESGGGLVQAGGSLRLSCAASGFTFYRYAMGWYRQAPGKERELVAAISWSGASTYYADSVKGRFTISRDNAKNTVYLQMNSLKPEDTPVYYCNAYDTYLGGFDYWGQGTQVTVSS,high polyreactivity
2,QVQLVESGGGLVQAGGSLRLSCAASGFTFYRYAMGWYRQAPGKERELVAAITQSGGSTYYADSVKGRFTISRDNAKNTVYLQMNSLKPEDTAVYYCAARYRYDYGYGLGYSWGQGTQVTVSS,high polyreactivity
3,QVQLVESGGGLVQAGGSLRLSCAASGFTFYRYAMGWYRQAPGKERELVAAITSGGSTNYADSVKGRFTISRDNANNTVYLQMNSLKPEDTAVYYCNAGRYVRWWWYSPDDYWGQGTQVTVSS,high polyreactivity
4,QVQLVESGGGLVQAGGSLRLSCAASGFTFYRYAMGWYRQAPGKERELVATISASGGSTYYADSVKGRFTISRDNAKNTVYLQMISLKPEDTAVYYCAVRTIWRFRYDYWGQGTQVTVSS,high polyreactivity
5,QVQLVESGGGLVQAGGSLRLSCAASGFTFYRYAMGWYRQAPGKESELVAAISGSGGSTYYADSVKGRFTISRDNAKNTVYLQMNSLKPEDTAVYYCNTVWFYGAKYDYWGQGTQVTVSS,high polyreactivity
6,QVQLVESGGGLVQAGGSLRLSCAASGFTFYSNAMGWYRQAPGKERELVAAINWGGGSTYYADSVKGRFTISRDNAKNTVNLQMNSLKPEDTAVYYCAAEPIWEYWNGVSYAYDYWGQGTQVTVSS,low polyreactivity
7,QVQLVESGGGLVQAGGSLRLSCAASGFTFYSNAMGWYRQAPGKERELVARITKRGGSTYYADSVKGRFTISRDNAKNTVYLQMNSLKPEDTAVYYCAADDGSDAEYYYWGQGTQVTVSS,high polyreactivity
8,QVQLVESGGGLVQAGGSLRLSCAASGFTFYSYAMGWYRQAPGKERELVAAISRSGGSTRYADSVKGRFTISRENAKNTVYLQMNSLKPEDTAVYYCNAGKDRAYDYWGQGTQVTVSS,high polyreactivity
9,QVQLVESGGGLVQAGGSLRLSCAASGFTFYSYARGWYRQAPGKERELVAVINSSGGRTFYADSVKGRFTISRDNAKNTVYLQMNSLKPEDTAVYYCAARYAASRGPNQGKGNYWGQGTQVTVSS,high polyreactivity
10,QVQLVESGGGLVQAGGSLRLSCAASGFTFYSYVIGWYRQAPGKERELVAAITRGGSTYYADSVKGRFTISRDNAKNTVYLQMNSLKPEDTAVYYCAKRPSYGYNYWGQGTQVTVSS,low polyreactivity
11,QVQLVESGGGLVQAGGSLRLSCAASGFTFYTYAMGWYRQAPGKERELVAAINRSGGRTFYADSVKGRFTISRDNAKNTDYLQMNSLKPEDTAVYYCAADSRPYVGGMDYWGQGTQVTVSS,high polyreactivity
12,QVQLVESGGGLVQAGGSLRLSCAASGFTFYTYAMGWYRQAPGKERELVAGISTRGGRTYYADSVKGRFTISRDNAKNTVYLQMNSLKPEDTAVYYCNAVDKTGKYDYWGQGTQVTVSS,high polyreactivity
13,QVQLVESGGGLVQAGGSLRLSCAASGFTFYTYTMGWYRQAPGKERELVAVISRSGGSTYYADSVKGRFTISRDNAKNTVYLQMNSLKPEDTAVYYCNKVGIYGSRSRYDSWGQGTQVTVSS,high polyreactivity
14,QVQLVESGGGLVQAGGSLRLSCAASGFTFYVNAMGWYRQAPGKERELVAAISSSGTRTYYADSVKGRFTISRDKAKNTVYLQMNSLKPEDTAVYYCAARGQAYSGDRMYYWGQGTQVTVSS,high polyreactivity
15,QVQLVESGGGLVQAGGSLRLSCAASGFTFYVNAMGWYRQAPGKERELVAAITYDGDSTYYADSVKGRFTISRDNAKNTVYLQMNSLKPEDTAVYYRNTVYGPDLDGTEYDYWGQGTQVTVSS,low polyreactivity
16,QVQLVESGGGLVQAGGSLRLSCAASGFTFYVYAMGWYRQAPGKERELVASISRGGSTYYADSVKGRFTISRDNAKNTVYLQINSLKPEDTAVYYCNRVPYVSSSKVRYSNGFDYWGQGTQVTVSS,low polyreactivity
17,QVQLVESGGGLVQAGGSLRLSCAASGFTFYYYAKGWYRQAPGKERELVAAINKKGGSTYADSVKGRFTISRDNAKNSVYLQLNSLKPEDTAVYYCYAVLTYTGVGYESWGQGTQVTVSS,high polyreactivity
18,QVQLVESGGGLVQAGGSLRLSCAASGFTFYYYAMGWYRQAPGKERELVAAISRSGGSTYYADSVKGRFTISRDNAKNTVYLQMNSLKPEDTAVDYCNKGSRWLRGLDSWGQGTQVTVSS,high polyreactivity
19,QVQLVESGGGLVQAGGSLRLSCAASGFTFYYYAMGWYRQAPGKERELVAAISWSSGRTYYADSVKGRFTISRDNAKNTVYLQMNSLKPEDTAVYYCAADGYAGSWWYDYWGQCTQVTVSS,high polyreactivity
20,QVQLVESGGGLVQAGGSLRLSCAASGFTFYYYAMGWYRQAPGKEREMVAAISGGGGSTYYADSVKGRFTISRDNAKNTVYLQMNSLKPEDTAVFYCAAEYRGYPEDEYWGQGTQVTVSS,high polyreactivity
21,QVQLVESGGGLVQAGGSLRLSCAASGFTFYYYAMGWYRQATGKERELVAAISSTGGSTYYADSVKGRFTISRDNAKNTVYLQMNSVKQEDSAVYYCNAAGYRYPGDYDYWGQGTQVTVSS,high polyreactivity
